This is an account of results in patent US20190161551A1.

Test [1] addresses human TrkB extracellular domain (aa Cys32-His430) expressed with the Fc portion of human IgG1 at the C-terminus (human). Briefly: competition ELISA, 500 pM hTrkB-hFc pre-mixed with mAb, plate-coated hBDNF.
Test [2] shares this target. Briefly: competition ELISA, 500 pM hTrkB-hFc pre-mixed with mAb, plate-coated hNT-4.

human TrkB extracellular domain (aa Cys32-His430) expressed with the Fc portion of human IgG1 at the C-terminus (human), sequence (chain, as listed by the source limits assumed): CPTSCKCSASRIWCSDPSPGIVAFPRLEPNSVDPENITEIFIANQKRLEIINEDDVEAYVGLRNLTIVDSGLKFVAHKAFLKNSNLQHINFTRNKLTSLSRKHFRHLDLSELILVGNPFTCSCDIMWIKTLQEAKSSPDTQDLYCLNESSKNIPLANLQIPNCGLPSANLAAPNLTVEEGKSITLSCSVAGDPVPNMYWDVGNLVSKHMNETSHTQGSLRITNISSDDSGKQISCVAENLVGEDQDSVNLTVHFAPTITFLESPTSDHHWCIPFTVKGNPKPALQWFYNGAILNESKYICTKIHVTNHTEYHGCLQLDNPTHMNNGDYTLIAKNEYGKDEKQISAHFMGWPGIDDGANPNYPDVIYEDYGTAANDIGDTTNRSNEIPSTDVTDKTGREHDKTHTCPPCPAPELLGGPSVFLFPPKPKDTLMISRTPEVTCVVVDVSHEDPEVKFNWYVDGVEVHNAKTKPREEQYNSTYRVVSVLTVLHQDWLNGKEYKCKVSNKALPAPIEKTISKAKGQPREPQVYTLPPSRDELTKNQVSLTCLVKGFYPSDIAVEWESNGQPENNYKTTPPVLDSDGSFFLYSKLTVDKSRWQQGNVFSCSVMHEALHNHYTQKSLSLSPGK

Take “mIgG1 negative isotype control (antibody)”: the % Blockade with 100 nM antibody was -19% in test [1] and -14% in test [2].
Turning to “hIgG4 negative isotype control (antibody)”, the figures for the % Blockade with 100 nM antibody in test [1] and in test [2] were -31% and -45%, respectively.
